In patent US20230407373A1 (priority 2020, published 2023):
Where two headings read alike, the source gives them in different places.

Legend:
Format in all cases: binding
HCoV-OC43 gRNA and sgRNA = settings: for target (unweighted spectral count, OC43 Probe II capture): type n_36_v, FDR<10%; for target (unweighted spectral count, OC43 Probe II capture) / target (unweighted spectral count): tested against no-probe control; for target (unweighted spectral count): OC43 Probe II, infected cells
SARS-CoV-2 gRNA = settings: […]; LC-MS/MS; Probe I sample (first 199 lines of Table 2)
[1] = test system: SARS-CoV-2 gRNA and sgRNAs; settings: for target (unweighted spectral count in RNP capture): Probe II capture, LC-MS/MS LFQ; for background (unweighted spectral count in control): no-probe control pull-down, used as background for Probe II
gRNA of HCoV-OC43 = settings: for target (spectral count, OC43 Probe I RNP capture) / background (spectral count, no-probe control): type n_48_v: 48 hours post-infection; for target (spectral count, OC43 Probe I RNP capture): infected cells, unweighted spectral count; for background (spectral count, no-probe control): no-probe control on infected cells

B1: PSPC1: host protein, UniProt Q8WXF1 (protein, UniProt Q8WXF1 1-523, looked up)
Paraspeckle component 1: MMLRGNLKQVRIEKNPARLRALESAVGESEPAAAAAMALALAGEPAPPAPAPPEDHPDEEMGFTIDIKSFLKPGEKTYTQRCRLFVGNLPTDITEEDFKRLFERYGEPSEVFINRDRGFGFIRLESRTLAEIAKAELDGTILKSRPLRIRFATHGAALTVKNLSPVVSNELLEQAFSQFGPVEKAVVVVDDRGRATGKGFVEFAAKPPARKALERCGDGAFLLTTTPRPVIVEPMEQFDDEDGLPEKLMQKTQQYHKEREQPPRFAQPGTFEFEYASRWKALDEMEKQQREQVDRNIREAKEKLEAEMEAARHEHQLMLMRQDLMRRQEELRRLEELRNQELQKRKQIQLRHEEEHRRREEEMIRHREQEELRRQQEGFKPNYMENREQEMRMGDMGPRGAINMGDAFSPAPAGNQGPPPMMGMNMNNRATIPGPPMGPGPAMGPEGAANMGTPMMPDNGAVHNDRFPQGPPSQMGSPMGSRTGSETPQAPMSGVGPVSGGPGGFGRGSQGGNFEGPNKRRRY
- target (unweighted spectral count, OC43 Probe II capture) (HCoV-OC43 gRNA and sgRNA; 36 hpi): 14
- target (unweighted spectral count) (HCoV-OC43 gRNA and sgRNA; 12 hpi (type n_12_v)): 4
- target (unweighted spectral count) (HCoV-OC43 gRNA and sgRNA; 24 hpi (type n_24_v)): 8
- target (unweighted spectral count, OC43 Probe II) (HCoV-OC43 gRNA and sgRNA; type n_48_v, 48 hpi, OC43 Probe II capture on infected cells): 14
- background (unweighted spectral count, no-probe control) (HCoV-OC43 gRNA and sgRNA; type n_48_v, 48 hpi, no-probe control on infected cells): 1
- target (spectral count) (HCoV-OC43 gRNA and sgRNA; type s_36_m, HCoV-OC43-infected HCT-8 cells, 36 hpi, Probe II): 14
- background (spectral count) (HCoV-OC43 gRNA and sgRNA; type s_36_m, uninfected-probe control, 36 hpi, Probe II): 1
- target (unweighted spectral count of the protein in the RNP capture) (SARS-CoV-2 gRNA): 7
- target (unweighted spectral count in RNP capture) [1]: 10
- background (unweighted spectral count in control) [1]: 1
- target (spectral count) (gRNA of HCoV-OC43; type g_36_m, HCoV-OC43-infected HCT-8 cells, 36 hpi, Probe I): 12
- background (spectral count) (gRNA of HCoV-OC43; type g_36_m, uninfected-probe control, 36 hpi, Probe I): 1
- target (spectral count, OC43 Probe I RNP capture) (gRNA of HCoV-OC43): 20
- background (spectral count, no-probe control) (gRNA of HCoV-OC43): 1

B2: HNRNPM (protein, UniProt P52272 2-730, looked up)
Heterogeneous nuclear …: AAGVEAAAEVAATEIKMEEESGAPGVPSGNGAPGPKGEGERPAQNEKRKEKNIKRGGNRFEPYANPTKRYRAFITNIPFDVKWQSLKDLVKEKVGEVTYVELLMDAEGKSRGCAVVEFKMEESMKKAAEVLNKHSLSGRPLKVKEDPDGEHARRAMQKVMATTGGMGMGPGGPGMITIPPSILNNPNIPNEIIHALQAGRLGSTVFVANLDYKVGWKKLKEVFSMAGVVVRADILEDKDGKSRGIGTVTFEQSIEAVQAISMFNGQLLFDRPMHVKMDERALPKGDFFPPERPQQLPHGLGGIGMGLGPGGQPIDANHLNKGIGMGNIGPAGMGMEGIGFGINKMGGMEGPFGGGMENMGRFGSGMNMGRINEILSNALKRGEIIAKQGGGGGGGSVPGIERMGPGIDRLGGAGMERMGAGLGHGMDRVGSEIERMGLVMDRMGSVERMGSGIERMGPLGLDHMASSIERMGQTMERIGSGVERMGAGMGFGLERMAAPIDRVGQTIERMGSGVERMGPAIERMGLSMERMVPAGMGAGLERMGPVMDRMATGLERMGANNLERMGLERMGANSLERMGLERMGANSLERMGPAMGPALGAGIERMGLAMGGGGGASFDRAIEMERGNFGGSFAGSFGGAGGHAPGVARKACQIFVRNLPFDFTWKMLKDKFNECGHVLYADIKMENGKSKGCGVVKFESPEVAERACRMMNGMKLSGREIDVRIDRNA
- target (unweighted spectral count, OC43 Probe II capture) (HCoV-OC43 gRNA and sgRNA; 36 hpi): 73
- target (unweighted spectral count) (HCoV-OC43 gRNA and sgRNA; 12 hpi (type n_12_v)): 22
- target (unweighted spectral count) (HCoV-OC43 gRNA and sgRNA; 24 hpi (type n_24_v)): 34
- target (unweighted spectral count of the protein in the RNP capture) (SARS-CoV-2 gRNA): 71
- target (unweighted spectral count in RNP capture) [1]: 53
- background (unweighted spectral count in control) [1]: 1
- target (spectral count, OC43 Probe I RNP capture) (gRNA of HCoV-OC43): 65
- background (spectral count, no-probe control) (gRNA of HCoV-OC43): 7
